Key:
[1] = target: T1, KIV10-P recombinant apolipoprotein(a) construct (UniProt P08519 1605-2040, limits assumed); assay: dot-blot, pattern duplicated by western blot
T1 construct: domain: KIV10 to the protease domain
Procedure: (§1) Lp(a) and array of recombinant apo(a) constructs were used to test LPA-KIV₉ binding by (A) Dot-blot (25 ng protein/dot) and (B) western blot (WB) under reducing conditions (250 ng protein/well).
(§2) Imunoblot analyses. An array of apo(a) constructs was subjected to gel electrophoresis and immunoblot analysis with LPA-KIV9. Briefly, samples (250 ng/well) were loaded in reducing loading buffer and run on a 4-12% Bis-Tris gel (Life Technologies). Gels were transferred to a PVDF membrane (Life Technologies), and the membranes were blocked with 5% nonfat dry milk in Tris-buffered saline and Tween (TBST) for 1 hour before incubation with primary antibodies (1 μg/ml in 1% BSA-TBST) overnight at 4° C., followed by incubation with secondary antibodies conjugated with horse-radish peroxidase (Cell Signaling Technology, Beverly, Mass.) for 1 hour at room temperature and by detection with KPL-TMB membrane peroxidase substrate (SeraCare, Milford, Mass., USA). A dot-blot was also performed with antigens in PBS (25 ng/dot) loaded directly on the membrane. Blocking and immunoblotting were done as described above and detected by a Super Signal West Dura substrate (Thermo Fisher Scientific, Waltham, Mass.) and an OptiChem HR imaging system (UVP, Upland, Calif.).
(§3) Determination of the binding domain of LPA-KIV₉ on apolipoprotein(a). […]

[2] = target: T2, K(IV2)5 recombinant apolipoprotein(a) construct (5 copies of KIV2) (UniProt P08519 131-700, limits assumed); assay: dot-blot, pattern duplicated by western blot
T2 construct: domain: KIV2, 5 copies
T2 sequence (looked up): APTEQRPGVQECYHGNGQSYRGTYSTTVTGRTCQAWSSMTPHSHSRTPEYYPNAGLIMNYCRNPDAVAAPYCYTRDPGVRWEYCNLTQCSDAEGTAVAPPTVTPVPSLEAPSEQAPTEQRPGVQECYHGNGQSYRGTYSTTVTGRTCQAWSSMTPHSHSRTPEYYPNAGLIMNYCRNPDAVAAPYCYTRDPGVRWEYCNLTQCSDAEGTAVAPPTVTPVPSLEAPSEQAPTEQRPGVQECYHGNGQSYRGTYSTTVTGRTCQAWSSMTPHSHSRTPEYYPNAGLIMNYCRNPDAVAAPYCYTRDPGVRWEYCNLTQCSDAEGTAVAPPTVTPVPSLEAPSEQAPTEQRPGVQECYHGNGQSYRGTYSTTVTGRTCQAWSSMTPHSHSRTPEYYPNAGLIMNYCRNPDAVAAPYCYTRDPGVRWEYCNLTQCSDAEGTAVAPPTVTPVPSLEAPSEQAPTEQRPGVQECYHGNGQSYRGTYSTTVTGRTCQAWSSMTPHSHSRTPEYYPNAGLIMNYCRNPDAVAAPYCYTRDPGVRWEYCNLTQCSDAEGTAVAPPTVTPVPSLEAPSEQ
Procedure: as §1, §2, §3

[3] = target: T3, human plasminogen (R&D, Minneapolis, Minn.) (human, UniProt P00747 20-810); assay: ELISA of hybridoma subclones on coated antigen
T3 construct: Bought reagent
Procedure: (§4) (A) Mouse plasma titers of Lp(a)-specific antibodies: Following the first boost target-specific antibody titers were determined by ELISA against immobilized antigen by screening serial dilutions of the serum. The graph represents the mean of technical triplicates measurements at 1:400 plasma dilution. (B) Hybridoma screening: 576 hybridoma colonies were collected and expanded. Supernatants were screened by ELISA against the target antigen Lp(a) and counter-screened against antigen K(IV₂)₃. […] (C) Limiting dilution: To ensure monoclonality, 10 positive colonies were subjected to 2 cycles of limiting dilutions, using semi-solid gel without hypoxanthine-aminopterin-thymidine medium. Collected subclones were tested by ELISA. Colony #1 found to specifically binds Lp(a), but not to plasminogen and KIV₂. […] Colony 1 was tested 5 times and designated LPA-KIV₉. (D) Purified LPA-KIV₉ binding to Lp(a) (5 ug/ml) was tested by ELISA. […] Mean±SD.
(§5) ELISA with direct antigen plating to assess binding of hybridoma generated antibodies. […] Bound IgG antibodies were detected using an anti-mouse IgG-alkaline phosphatase (ALP) conjugate (Sigma-Aldrich, St. Louis, Mo.), Lumi-Phos 530 substrate (Lumigen, Southfield, Mich.) and a luminescence plate reader (BioTek, Vermont).

[4] = target: T4, K(IV2)3 recombinant apolipoprotein(a) construct (3 copies of KIV2) (UniProt P08519 131-472, limits assumed); assay: ELISA of hybridoma subclones on coated antigen
T4 construct: domain: KIV2, 3 copies; also called apolipoprotein(a) KIV2
T4 sequence (looked up): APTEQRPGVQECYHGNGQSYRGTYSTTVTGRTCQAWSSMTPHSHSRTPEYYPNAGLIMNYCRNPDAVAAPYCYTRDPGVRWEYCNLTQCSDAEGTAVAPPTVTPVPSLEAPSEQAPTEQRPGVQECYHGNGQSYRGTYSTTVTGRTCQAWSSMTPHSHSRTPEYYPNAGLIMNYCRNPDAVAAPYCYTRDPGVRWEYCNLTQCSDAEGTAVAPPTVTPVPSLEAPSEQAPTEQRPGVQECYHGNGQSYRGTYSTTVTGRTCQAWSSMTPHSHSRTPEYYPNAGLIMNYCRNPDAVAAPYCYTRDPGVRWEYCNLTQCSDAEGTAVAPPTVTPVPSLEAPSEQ
Procedure: as §4, §5

T1 sequence (P08519 1605-2040 limits assumed): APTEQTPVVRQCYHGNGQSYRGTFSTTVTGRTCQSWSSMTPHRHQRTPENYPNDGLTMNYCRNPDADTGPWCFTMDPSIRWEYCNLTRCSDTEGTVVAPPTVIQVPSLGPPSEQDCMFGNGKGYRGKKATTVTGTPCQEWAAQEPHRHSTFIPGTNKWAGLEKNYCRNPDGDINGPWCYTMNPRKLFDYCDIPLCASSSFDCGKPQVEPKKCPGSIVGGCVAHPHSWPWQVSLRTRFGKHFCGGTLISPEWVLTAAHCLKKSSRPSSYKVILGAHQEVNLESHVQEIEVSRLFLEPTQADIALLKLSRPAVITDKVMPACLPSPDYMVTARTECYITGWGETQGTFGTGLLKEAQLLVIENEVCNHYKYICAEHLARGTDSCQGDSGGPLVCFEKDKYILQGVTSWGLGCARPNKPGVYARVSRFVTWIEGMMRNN
T3 sequence (P00747 20-810 limits assumed): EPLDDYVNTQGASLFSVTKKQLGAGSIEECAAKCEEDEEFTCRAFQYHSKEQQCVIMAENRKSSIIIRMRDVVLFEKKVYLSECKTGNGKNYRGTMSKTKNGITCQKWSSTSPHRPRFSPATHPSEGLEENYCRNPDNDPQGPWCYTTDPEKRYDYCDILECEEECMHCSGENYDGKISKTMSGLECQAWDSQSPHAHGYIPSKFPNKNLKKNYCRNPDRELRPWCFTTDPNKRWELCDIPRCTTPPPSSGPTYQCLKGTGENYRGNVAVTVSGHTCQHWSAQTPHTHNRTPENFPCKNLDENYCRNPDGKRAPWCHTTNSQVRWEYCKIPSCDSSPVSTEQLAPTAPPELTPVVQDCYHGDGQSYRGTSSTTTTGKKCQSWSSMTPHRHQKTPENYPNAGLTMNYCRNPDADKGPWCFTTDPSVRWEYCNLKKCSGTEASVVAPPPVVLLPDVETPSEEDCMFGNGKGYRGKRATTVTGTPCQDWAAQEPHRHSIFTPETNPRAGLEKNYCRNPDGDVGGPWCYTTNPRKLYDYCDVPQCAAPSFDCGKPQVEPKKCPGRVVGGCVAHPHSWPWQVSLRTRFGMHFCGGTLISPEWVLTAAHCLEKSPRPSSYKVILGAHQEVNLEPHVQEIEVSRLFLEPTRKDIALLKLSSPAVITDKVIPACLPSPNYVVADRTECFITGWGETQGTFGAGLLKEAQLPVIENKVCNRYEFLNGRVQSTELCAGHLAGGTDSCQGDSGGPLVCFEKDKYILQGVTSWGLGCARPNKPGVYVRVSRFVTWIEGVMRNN

binding result [1]: no binding (tested: 25 ng/dot) | binding result [2]: no binding (tested: 25 ng/dot) | binding result [3]: no binding | binding result [4]: no binding
B1: LPA-KIV9 murine monoclonal antibody (antibody, IgG1, V domains shown)
VH: QVQLQQSGAELVRPGASVKLSCKALGYTFTDYELHWLKQTPVHGLEWIGAVHPGSGGSAYNQNFKDKATLTADKSSSTAYMELSSLTSEDSAVYYCTREGPFYWGQGTTLTVSS
VL: DVVMTQTPLSLPVSLGDQASISCRSSQSLVHSNGNAYLHWYLQKPGQSPKLLIYKVSNRFSGVPDRFSGSGSGTNFTLKISRVEAEDLGIYFCSQSTHVPLTFGAGTKLELK
notes: constant regions are not; also called Colony #1; Colony 1

— patent publication US20230167198A1 (University of California, published 2023)
